Results published in the nanobody polyreactivity screen of Harvey et al. (2022).

Test: yeast display, Sf9 membrane polyspecificity reagent, FACS + sequencing; frameworks hold sequencing errors
Outline: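 A nanobody's polyreactivity label depends on the gate it was sorted from. Yeast display cells were stained with 10% biotinylated, detergent-solubilized Sf9 membrane reagent for 1 hour at 4 °C, enriched on streptavidin microbeads and sorted by FACS. The low and high (top ~1%) gates were set on anti-HA fluorescence for expression and streptavidin fluorescence for reagent binding.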

Sequence | polyreactivity (PSR sort gate)
QVQLVESGGGLVQAGGSLRLSCAASGLTFKSYAMGWYRQAPGKERELVAAISWRGGRTYYADSVKGRFTISRDNAKNTVYLQMNSLKPEDTAVYYCNARSQQWWLSRYNYWGQGSQVTVSS | high polyreactivity
QVQLVESGGGLVQAGGSLRLSCAASGLTFKVYDMGWYRQAPGKERELVAAISWSGGSTYYADSVKGRFTISRDNAKNTVYLQMNSLKPEDTAVYFCAVEPSYYVVFFPYEYWGQGTQVTVSS | low polyreactivity
QVQLVESGGGLVQAGGSLRLSCAASGLTFKYYAMGWYRQAPGKERELVAAISWNGDRTYYADSVKGRFTISRDNAKNTVYLQMNSLKPEDTAVYYCATKFYFSTSIAGGYWGQGTQVTVSS | high polyreactivity
QVQLVESGGGLVQAGGSLRLSCAASGLTFLNNAMGWYRQAPGKERELVAAISDGGSTNYADSVKGRFTISRDNAKNTVYLQMNSLKPEDTAVYYCAARVRGDYGHKYYQFDYWGQGTQVTVSS | low polyreactivity
QVQLVESGGGLVQAGGSLRLSCAASGLTFLWYAMGWYRQAPGKERELVAAITSGGRTKYADSVKGRFTISRDNAKNTVYLQMNSLKPEDTAVYYCAAYTQWWGYDYWGQGTLVTVSS | high polyreactivity
QVQLVESGGGLVQAGGSLRLSCAASGLTFLWYAMGWYRQAPGKERELVAAITSGGRTKYADSVKGRFTISRDNAKNTVYLQMNSLKPEDTAVYYCAKRGGGTTYSRKHDYWGQGTQVTVSS | high polyreactivity
QVQLVESGGGLVQAGGSLRLSCAASGLTFLYYAMGWYRQAPGKEREFVAAIDISGGSTYYADSVKGRFTISRDNAKKTVYLQMYSLKPEDTAVYYCAVEPWYYLAGRSQYDYWGQGTQVTVSS | low polyreactivity
QVQLVESGGGLVQAGGSLRLSCAASGLTFLYYAMGWYRQAPGKERELVAAITGSGGTTNYADSVKGRFTISRDNAKNTVYLQMNSLKPEDTAVYYCAARGRKYYTSLGYYYWGQGTQVTVSS | high polyreactivity
QVQLVESGGGLVQAGGSLRLSCAASGLTFNSYDMGWYRQAPGKERELVAAISSGGVLPNYADSVKGRFTISRDNAKNTVYLQMNSLNPEDTAVYYCNVYSWPYDYWGQGTQVTVSS | low polyreactivity
QVQLVESGGGLVQAGGSLRLSCAASGLTFNVYAMGWYRQAPGKERELVASITKRGGSTYYADSVKGRFTISRDNAKNTVYLEMNSLKPEDTAVYYCAADGLTGSKYRATGYYWGQGTQVTVSS | high polyreactivity
QVQLVESGGGLVQAGGSLRLSCAASGLTFNYYAMGWYRQAPGKERELVAAISSSTGSTYYADSVKGRFTISRDNAKYTVYLQMNSLKPEDTAVYYCAAVRTKAYVSRTSQSGYWGQGTQVTVSS | high polyreactivity
QVQLVESGGGLVQAGGSLRLSCAASGLTFNYYAMGWYRQPPGKESELVAAITSSGGRTYYADSVKGRFTISRDNAKNTGYLQMNSLKPEDTAVYYCNTVSYRLGAVWFSYDYWGQGTQVTVSS | high polyreactivity
QVQLVESGGGLVQAGGSLRLSCAASGLTFPFYAMGWYRQAPGKERELVAAITGSGGITYYADSVKGRFTISRDNAKNTVYLQMNSLKPEETAVYYCAFDYTYYTSFVPLFGFDYWGQGTQVTVSS | low polyreactivity
QVQLVESGGGLVQAGGSLRLSCAASGLTFPLYAMGWYRQAPGKEREFVAAITVSGVSTSYADSEKGRFTISRDIAKITVYLQMNSLKPEDTAVYYCAADYYIWTYWDVYYWGQGTQVTVSS | high polyreactivity
QVQLVESGGGLVQAGGSLRLSCAASGLTFPSYAMGWYRQAPGKERELVASISSGGSTTYADSVKGRFTISRDNAKNTVYLQMNSLKPEDTAVYYCAAGRYVLRRGYYYWGQGTQVTVSS | high polyreactivity
QVQLVESGGGLVQAGGSLRLSCAASGLTFPWYAMGWYRQAPGKERELVAGISWSGGSTYYADSVKGRFTNSRDNAKNTVYLQMNSLKPEDTAVYYCKLVKTTSTLGKRRYDYWGQGTQVTVSS | high polyreactivity
QVQLVESGGGLVQAGGSLRLSCAASGLTFPYYAMGWYRKAPGKERELVAGISDSGGSTYYADSVKGRFTISRDNAKNTVYLQMNSLKPEDTAVYYCAAQGVDSYYENDYWGQGTQVTVSS | high polyreactivity
QVQLVESGGGLVQAGGSLRLSCAASGLTFPYYAMGWYRQAPGKEREFVAAISRGGGRTSYADSVKGRFTISRDNAKNTVYLQMNSLKPEDTAVYYCAADDPGWYSDLYYYWGLGTQVTVSS | high polyreactivity
QVQLVESGGGLVQAGGSLRLSCAASGLTFPYYAMGWYRQAPGKERELVAAISGGGRTYYADSVMGRFTISRDNAKNTVYLQMNSLKPEDTAVYYCAPFHVGRYTGTVTDGYDYWGQGTQVTVSS | high polyreactivity
QVQLVESGGGLVQAGGSLRLSCAASGLTFQENAMGWYRQAPGKERELVASITPIGGSTYYADSVKGRFTISRDNAKNTVYLQMKSLKPEDTAVYYCAARSPIYATYGHDYWGQATQVTVSS | low polyreactivity
QVQLVESGGGLVQAGGSLRLSCAASGLTFQENGMGGYRQAPGKERELVASITTIGGSTYYADSVKGRFTISRDNAKNTVYLQMKSLKPEDTAVYYCAALSPIYATYGHDYWGQGTQVTVSS | low polyreactivity
QVQLVESGGGLVQAGGSLRLSCAASGLTFQSYVMGWYRPAPGKERELVAAISWSGTRTYFADSVKGRFTISRDNAKNTVYLQMYSLKPEDTAVYSCAADFYTWYEERYWSYNYWGQGTQVTVSS | high polyreactivity

Sequence | polyreactivity (PSR sort gate)
QVQLVESGGGLVQAGGSLRLSCAASGLTFQWYAMGWYRQAPGKERELVAAISSRGGSTYYADSVKGRFTISRDNAKNTVYLQMNSLKPVDTAVYYCAVYTIGYLAWYQKFDYWGQGTQVTVSS | high polyreactivity
QVQLVESGGGLVQAGGSLRLSCAASGLTFRGNVMGWYRQAPGKERELVAAISRSGNTYYADSVKGRFTISRDNAKNTVYLQMNSLKPEDTAVYYCAAQSVRWYSSFKYYYWGQGTQVTVSS | high polyreactivity
QVQLVESGGGLVQAGGSLRLSCAASGLTFRKNAMGWYRQAPGKERELVAGISSGGSTYYADSVKGRFTISRDNAKNTVYLQMNSLKPEDTAVYYCGANALRTMYYWGQGTQVNVSS | high polyreactivity
QVQLVESGGGLVQAGGSLRLSCAASGLTFRLNAMGWYRQAPGKERELVAAITAIGDRTYYADSVKGRFTISRDNAKNTVYLQMKSLKQEDTAVYYCNVTPRRAQVRIGNYWGQGTQVTVSS | high polyreactivity
QVQLVESGGGLVQAGGSLRLSCAASGLTFRPYTMGWYRQAPAKERELVAAISARGGRTYYADSVKGRFTISRDNAKNTVYLQMNSLKPEDTAVYYCATLETTGVNYWGQGTQVTVSS | high polyreactivity
QVQLVESGGGLVQAGGSLRLSCAASGLTFRQYAMGWYRQAPGKERELVAAITNGGRTYYADSVKGRFTISRDNAKNTVYLQMNSLKPEDTAVYYCAAYVPTFKDRSRWYGRKYDYWGQGTQVTVSS | low polyreactivity
QVQLVESGGGLVQAGGSLRLSCAASGLTFRRYTMGWYRQAPGKERECVAAIRTSGGSTSYADSVKGRFTISRDNAKNTVYLQMNSLKPEDTAVYYCAADYGGTSYVRGTVGRKYDYWGQGTQVTVSS | high polyreactivity
QVQLVESGGGLVQAGGSLRLSCAASGLTFRVNDMGWYRQAPGKERELVATISSGGSTYYADSVKGRFTISRDNAKNTVYLQMNSLKPEDTAVYYCATNSEGQESNSYYVWMGYWGQGTHVTVSS | low polyreactivity
QVQLVESGGGLVQAGGSLRLSCAASGLTFRWYAMGWYRQAPGKEREWVAAISSGGRTYYADSVKGRFTISRDNAKNTVYLHMNSLKPEDTAVYYCNKRTLDYGFGSYGRDYWGQGTQVTVSS | high polyreactivity
QVQLVESGGGLVQAGGSLRLSCAASGLTFRYYAMGWDRPAPGKERELVAAITASVGSTYYADSVKGRFTISRDNAKNTVYLQMNSLNPEDTAVYYCNADLSYFFGPYWGLYGLDYWGQGTQVTVSS | low polyreactivity
QVQLVESGGGLVQAGGSLRLSCAASGLTFRYYAMGWYIQAPGKERELVATITATDGSTYYADSVKGRFTISRDNAKNTVYLQMNSLKPEDTAVYYRAKTYTEYSVTRSGARMDYWGQGTQVTVSS | low polyreactivity
QVQLVESGGGLVQAGGSLRLSCAASGLTFRYYAMGWYRQAPGKERELVAAITRRGSTYYADSVKGRFTISRDNAKNTVYLQMNSLKPEDTAVYFCATVTGFHSSPLRDLDYWGHGTQVTVSS | high polyreactivity
QVQLVESGGGLVQAGGSLRLSCAASGLTFSDYAMGWYRQAPGKERELVAGISSGGSTYYADSVKGRFTISRDNAENTVYLQMNSLKPEDTAVYYCAATRYNRWPIKFDYWGQGTQVTVSS | high polyreactivity
QVQLVESGGGLVQAGGSLRLSCAASGLTFSKYAMGWYRQAPGKERELVAAITRGDRTYYSDSVRGRFTISRDNAKNTVYLQMNRLKPEDTAVYYCAARQYYWGQGTQVTVSS | high polyreactivity
QVQLVESGGGLVQAGGSLRLSCAASGLTFSPNAMGWYRQAPGKERELVAAITRSGSTTHYADSVKGRFTISRDNAKNTVYLQMNSLKPEDTAVYYCARRYYGPYDYWGQGTQVTVSS | high polyreactivity
QVQLVESGGGLVQAGGSLRLSCAASGLTFSQNAMGWNRQPPGKERELVGAITRSGSTTHYADSVKGRFTISRDKAKNTVYLQMNSLKPEDTAVYYCAAVAFQTRYYYWGQGTQVTLSS | high polyreactivity
QVQLVESGGGLVQAGGSLRLSCAASGLTFSRYAMGWYRQAPGKERELVAAISSRSGSTFYADSVKGRFTISRDNAKNTVYLQMNSLKPEDTAVYYCAARRDWLGGYWGQGTQVTVSS | high polyreactivity
QVQLVESGGGLVQAGGSLRLSCAASGLTFSSYAMGWYRQAPGKERELVAAISLSGGRTYYADSVKGRFTISRDNAKNTVYLQMNSLKPEDTAVYYCAARRPNLQHANDYWGQGTQVTVSS | high polyreactivity
QVQLVESGGGLVQAGGSLRLSCAASGLTFSSYAMGWYRQAPGKERELVAAITRGGRTQYADSVKGRFTISRDNAKNTVYLQMNSLKPEDTAVYYCARSGNYYYWGQGTQVTVSS | high polyreactivity
QVQLVESGGGLVQAGGSLRLSCAASGLTFSYNAMGWYIQAPGTERELVAAINWSGGSTYYADSVKGRFTISRDNAKNTVYLPMNSLKPEDTAVYYCAADIYSKGGRGLYYWGQGTQLTVSS | high polyreactivity
QVQLVESGGGLVQAGGSLRLSCAASGLTFSYYAMGWYRQAPGKERELVAAISITGSTNYADSVKGRFTISRDNAKNTVYLQMNSLKPEDTAVYYCAARRSLSVLPYYYWGQGTQVTVSS | high polyreactivity
